Reference: the supplement of paper PMC7125110
± gives the standard error. Fewer inactive variants are shown than the library holds.

B1: glmS ribozyme (parent)
chain: AUAAAAGCGCCAGAACUACAGAAAUGUAGUUGACGAGGAGGAGGUUUAUCGAAUUUUCGGCGGAUGCCUCCAAA

Variants of: B1
Assay: self-cleavage kobs at 2500 uM GlcN6P; higher = faster cleavage; RNA array
Conditions: with glucosamine-6-phosphate
Summary of the method: (§1)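 Barcoded ribozyme variants, transcribed in situ by E. coli RNA polymerase on sequenced MiSeq chips, were followed via a hybridised Cy3 probe at 37 °C. Glucosamine-6-phosphate ranged from 40 μM to 10 mM in HEPES/KCl/Mg(OAc)2 buffer. kobs came from decay fits to per-tile medians, and kcat and KM from weighted Michaelis–Menten fits.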

Variant	self-cleavage kobs at 2500 uM GlcN6P [s⁻¹]
U46G G51U G59A	< 1e-05
G40U G51U G59A	< 1e-05
U47G C58A C68A	0.000116 ± 2.9e-05
A42G G51C G62A	< 1e-05
G37U G38U A39C	< 1e-05
G40U G43U C70G	< 1e-05
G41U A42C C70U	0.000121 ± 2.6e-05
A42U G44U U65C	< 1e-05
A39U A52C C67G U69G	< 1e-05
A52C C58A C70U	< 1e-05
G41U U54A U55A U56A C67U	< 1e-05
U54G C68U C70U	0.00037 ± 6.8e-05
U46C U57A C71U	4.35e-05 ± 1.6e-05
U47G C50G	4.35e-05 ± 1.2e-05
U47C A52U A64G	3.84e-05 ± 1.6e-05
A48U U69A	2.8e-05 ± 1.3e-05
G62C A64G C70A	< 1e-05
G38C U46C U49A	< 1e-05
G40U G43U U54A	< 1e-05
A64G C68G C71G	0.000122 ± 3.9e-05
G40U U46G A48C	< 1e-05
A39U A53U C70G	0.0003 ± 7.6e-05
A52C U69G	9.19e-05 ± 4.2e-05
G40U C58A G60U	< 1e-05
U45A A48G C67G	8.99e-05 ± 3.1e-05
U47G U54G U57C	0.00011 ± 2.6e-05
C50G C58G G62C	0.000553 ± 0.00021

Variant	self-cleavage kobs at 2500 uM GlcN6P [s⁻¹]
G38A A42G C68G	< 1e-05
U46A U49A G63C C67G	< 1e-05
G40U U46C A64G	9.83e-05 ± 2.4e-05
C50U G59A C70G C71U	5.06e-05 ± 1.7e-05
U49C U56G G66C	< 1e-05
G38A C58A C70G	6.46e-05 ± 1.7e-05
G44A A53U U54C	0.000119 ± 4.8e-05
U46G A48G U57G G62U	< 1e-05
U45C G66C C71A	6.04e-05 ± 2.8e-05
A42G A48U A52G C70A	< 1e-05
G43U G60A G66A C68G C70G	< 1e-05
G41A U47C G51C	< 1e-05
A48U G60C C61A	< 1e-05
G40C U54G G66A	0.00142 ± 0.00027
U45G A64U C68U	< 1e-05
A39U G44U A53U	0.000583 ± 0.00016
G38C C50A U65A	< 1e-05
G43U U56C C67G	< 1e-05
G44C C70A C71U	< 1e-05
A39G G40U A52G	6.69e-05 ± 2.4e-05
U55G U65C	0.000396 ± 8.6e-05
A42G U65A G66U	7.25e-05 ± 2.4e-05
A48G U55A C70A	8.47e-05 ± 2.9e-05
A53G U57A C68A	4.93e-05 ± 2.2e-05
G38C U46G G59A	< 1e-05
A53G U55G G66U	0.00112 ± 0.00027

Variants of: B1
Assay: self-cleavage kobs at 10000 uM GlcN6P; higher = faster cleavage; RNA array
Conditions: with glucosamine-6-phosphate
Summary of the method: as §1

Variant	self-cleavage kobs at 10000 uM GlcN6P [s⁻¹]
A6G U47A	0.000437 ± 0.00013
C8U C34G C58G G60U C67U	< 1e-05
C10A C11U G38C U55C C61A A64U	< 1e-05
A6C A14G A64G	0.000191 ± 3.2e-05
A6C C8U G9C C67U	< 1e-05
C8G A14U A52C G59C C71U	< 1e-05
G9U U31G U45A C61A C68A	< 1e-05
G9U A14U	< 1e-05
G9A A53G G66U	< 1e-05
G7C A48G C50A	< 1e-05
G40U G43U U54A	< 1e-05
A6G A14U A36G C50A	< 1e-05
A39U A53U C70G	0.000276 ± 5e-05
C8G U30G G40A	< 1e-05
A6G A12U C16U	5.43e-05 ± 2.1e-05
C8A A36U C61G G66A	< 1e-05
C10G A12G C61U	< 1e-05

Variant	self-cleavage kobs at 10000 uM GlcN6P [s⁻¹]
G44A A53U U54C	0.000211 ± 6.8e-05
A6C G44A C58U	< 1e-05
C8U G37C C50A G59C A64C	< 1e-05
A6U C16U U45A	0.000375 ± 6.6e-05
G7C A42G G43A	< 1e-05
C8A A15U C70U	< 1e-05
G7A G9C G40U	< 1e-05
G7A U57C	< 1e-05
C8G A42U U55G	< 1e-05
G7U A15U C70G	3.63e-05 ± 1.7e-05
C8U U47G G63A C70A	0.000324 ± 0.00012
U55G U65C	0.000628 ± 0.00013
G9U A15U C34A C58G	< 1e-05
C8G C10G G40U A52C	< 1e-05
C10A U46A A48G	< 1e-05
A53G U55G G66U	0.00144 ± 0.00029
